According to the RNAGym collection of RNA variant scans (doi:10.1073/pnas.2313332121):
Fewer inactive variants are shown than the library holds.

B1: TPR 5TU (parent)
chain: GGAUCUUCUCGAUCUAACAAAAAAGACAAAUCUGCCACAAAGCUUGAGAGCAUCUUCGGAUGCAGAGGCGGCAGCCUUCGGUGGCGCGAUAGCGCCAACGUUCUCAACUAUGACACGCAAAACGCGUGCUCCGUUGAAUGGAGUUUAUCAUG

Variants of: B1
Assay: polymerase ribozyme fitness, log enrichment relative to wild type (log ratio); higher = more active; in vitro selection for triplet polymerase activity
Summary of the method: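 Streptavidin-bead capture of gel-excised extended constructs, followed by RT-PCR, closed a single triplicate in vitro selection round. That round began by annealing PCR-built, transcribed mutant libraries of each subunit of a heterodimeric triplet polymerase ribozyme with a biotinylated primer, the partner subunit and triplets, then incubating them frozen at −7 °C. After Illumina sequencing of inputs and outputs, genotypes needed ≥10 input reads and ≥1 read per output. Fitness is the base-2 logarithm of genotype enrichment over wild-type enrichment, using inverse-variance-weighted replicate averages.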

Variant | polymerase ribozyme fitness (log ratio)
C5A C54U U55A C95G C96A | -4.05
C5G A40C C69A G70U A89C | ≤ -4.2
C5U C51A C54G G59C G84A C116G | -3.05
C5A U77A C87A | ≤ -4.2
C5G U13C C18U G46U C108U A122G | ≤ -4.2
C5U C8G A137U U145A A147C | ≤ -4.2
C5U A29U G62A G67C A142U | ≤ -4.2
C5A U7C A22U C103G | -2.38
C5U C51U G84A A150G | -2.47
C5A C32A U56A C85U A113C | ≤ -4.2
C5G U7A U33G A91G C93U C118G A122G U144G | ≤ -4.2
C5U A20C A29G A115C U130G C132U U146C | ≤ -4.2
C5A A16U A52G A106G | -3.09
C5G G34A C38U C43U G83A | ≤ -4.2
C5G A29U A64U G86U A150G | ≤ -4.2
C5G G34A U134A | -3.83
C5U A19G U77A C95U | ≤ -4.2
C5G G94C U101G | -2.68
C5G C38U G50A | -1.8
C5A C14G A37U A52C C85G C99U G140U | ≤ -4.2
C5A A16U A24U C35A U56A C85G U109G U144C | ≤ -4.2
C5G A41G C85U C95U A122U C132A | -3.5
C5G C85A | -1.7
C5A C87U | -0.502

Variant | polymerase ribozyme fitness (log ratio)
C5G A23G G50C A52C C69G A119G | ≤ -4.2
C5U C51A | -0.999
C5G U55G C85U C99A | -2.86
C5A A12U | 0.264
C5G U55G G83U U101C | -2.49
C5U C8U A23C C85U C103A C116U | ≤ -4.2
C5A A24G A64C G68A C76U C79U G83C U90A C95G A115U A138G | ≤ -4.2
C5G U53A G94A C125A U139C A142C | ≤ -4.2
C5A G42C | -4.02
C5G C36U C96G | -2.51
C5G C32U C96U A122G | -3.38
C5G A37C G81A | -1.37
C5U A12U G84U | -1.92
C5U A17C G50A U77A C87G A91C A106U U109G | ≤ -4.2
C5G C10U A49G U56A G74C C85U U90G C93U G100U A115C G141A | ≤ -4.2
C5G U33C G50C C57U G71A A73U A91U | ≤ -4.2
C5G C69G C93U | -4.12
C5A U45G C85U A115U G141U | -3.86
C5U C85G U104C | -3.03
C5G C14G G48C C57A A73C C87U C118U A121G C123U G140C | ≤ -4.2
C5A A20G C85U C93U A97U | -3.46
C5U A16U A26U U44A A52G G92C | ≤ -4.2
U4G G25A U45G C87A C99A C103U C105G U139G G143A | -4.11
C5U | 0.998

Variant | polymerase ribozyme fitness (log ratio)
C5G | -0.157
C5A | 0.273
C5U A19G A23G G58U G81A G94C C116A C129U U135C U146G | ≤ -4.2
C5U C51A G58A G81C | -1.81
C5G C85U A142U | -1.45
C5G G83U A98U C105U | -1.03
C5A A47G C79A G83U G140A U146G | ≤ -4.2
C5U C85U | -0.24
C5G U13A A23U A52C C87A C105U A107G | ≤ -4.2
C5U C27G C95U C96U G141C | ≤ -4.2
C5A C85U G86C A119C A120C | -3.07
C5G C38U A39C C95A G100C | ≤ -4.2
C5A C57U G81C G94C C108A G143C | ≤ -4.2
C5G U9A C54U U146C | -2.79
C5U A52C C76U C93A C116U C123G | -3.61
C5G U6C G50A | -2.74
C5U A37U C69U C95U | -1.02
C5G U9C A16C A28G A30U C32G C35A G59U G92U C105U | ≤ -4.2
C5A A17U G83U C87G | ≤ -4.2
C5G U53G C54A C96U U135A | -3.79
C5A C57G C72U A73U G80C C93G A110U | ≤ -4.2
C5A U56A G58A C72U C87U U109G G136A U144C | -3.93
C5G A41U G59C G84A | -2.99
C5G C79A C96A | ≤ -4.2

Variant | polymerase ribozyme fitness (log ratio)
C5A A19U G86C A147C | -3.38
C5G A19C G42U C79U C105U G126U | ≤ -4.2
U4G U53A C85U G133C | -2.45
C5A A17U G42A G83C U102A A119U G126U G141U | ≤ -4.2
C5G C10G A28U U33G C79U | ≤ -4.2
C5G G46U G81U C87U G88A A98U C125U | ≤ -4.2
C5G A39C C87A G126A G136C | ≤ -4.2
C5G U6G U7G C14G A28C A30C G50C C51G A89G C93G G94U C105U C118A G133A | ≤ -4.2
C5U A23U C32U G74U G83A C114U G136U C149U | ≤ -4.2
C5G G25C A28C C57G G58A C76G G143U | ≤ -4.2
C5G U31A C54U G67C A110U A121G | ≤ -4.2
C5G C96U | -0.763
C5U A52U G67U C93U C96U A115C | ≤ -4.2
C5G C38A G58U | -1.06
C5G G46A G88A C95G U102G U135C A147C | ≤ -4.2
C5U A28C U56A U77C G94A | ≤ -4.2
C5U C38U C63A U77A C95U U127G G136U U144C | ≤ -4.2
C5G G50C C85U | -3.69
U4G G84A U109A A115C C123A | -2.01
C5G U9G G86A | -4
C5A A16C G50A C76U G86C U144G | ≤ -4.2
U4G U7G A20U C57U A91U C123U A150U | -3
C5A U9G A73G C87U A120U C123U A147G | -3.95
C5A G92A U104G A120U C123A U130G | ≤ -4.2

Variant | polymerase ribozyme fitness (log ratio)
U4G U33G C75A C87G U109A A113U G117U | ≤ -4.2
C5U C75A | -4.03
C5G C18A A23G C54G G67A C93G C99G | ≤ -4.2
C5G C57U | -0.358
C5U A24U C32G U53G C123G A147G U151G | ≤ -4.2
C5G A120C | -0.488
C5G G65A A66G A137C G141C | ≤ -4.2
C5U A40C C54G G92A A121U C132U U146A | ≤ -4.2
C5A A110C | ≤ -4.2
C5U C8G A23U U45A G84C | ≤ -4.2
C5U A73U G83A | -0.929
U4G U33C G84U A120U U130C C132U | ≤ -4.2
C5A A28U U55A C57G C96U G141U | ≤ -4.2
U4G C114U | -2.01
C5G C18U A21C G86A C105A C123G | ≤ -4.2
C5A A17C G88A G117U | -3.46
C5A G92A | -1.42
C5G A89G C96U U135G | ≤ -4.2
C5A A26U A52G G86A G88C A113U G141A | ≤ -4.2
C5G A19G A24C A40U U55A G83U G86U | ≤ -4.2
C5G U82G G86U A121G | -2.13
C5A U13G G81U G92C U145G | -2.12
C5G A12G A21C A26U C38G U77A C118U | ≤ -4.2
C5A G141U | 0.735

Variant | polymerase ribozyme fitness (log ratio)
C5G A24G A26G A113G C116G | ≤ -4.2
C5A U78C A89U C95U | -1.72
C5G G92A C96A | -3.11
C5A C69G G84A C108U | -3.39
C5G C8U A28C U33A U44A C85U U90A U139C | ≤ -4.2
C5G G50A U61G G62A A66C C96A U146A | ≤ -4.2
C5A C85U C93U | -1.66
C5A A40C G50U C57U G81C C95A U104G C116G G133A | ≤ -4.2
C5A A21G G88C | -4.09
C5U A64C G84A A122G G124U U144G U151A | ≤ -4.2
C5A A12C G42A G68C C79A G83A C108G | ≤ -4.2
C5G C96A G117A | -0.406
C5A A12G A23C G84A | -4.02
C5G G84A | -0.0388
C5A U44A A73U C79U C85U G126U | ≤ -4.2
U4G G11U G59A C93U C125U U144C | ≤ -4.2
C5A U45G C85G | -2.33
C5G G50U C57U G92C A120G | -2.75
C5A A20U A21U A107G U145C C149U | ≤ -4.2
C5A C8G A21U C54G C57U G58A C69A G81A A115U G133C G143U | ≤ -4.2
C5U C54U U82A C95G A150U | -1.62
C5G A21G U55A C57U A147C | -0.914
U4G U9C A23U C43A U56G C87U U111G C132U | ≤ -4.2
U4G G50C A73G U102C | ≤ -4.2

Variant | polymerase ribozyme fitness (log ratio)
C5G A49U C57U C93G C103G U144C | ≤ -4.2
C5G C35U G80U C95U U104A | ≤ -4.2
C5G A91U | ≤ -4.2
C5U A16C C51U | -1.73
C5G U13A A29G C51U G94C C114G G140C G141C U144A | ≤ -4.2
C5A C76U | -0.144
C5A U15C U56A C105G A107C G117U U139C G143C U148C | ≤ -4.2
C5G U7G A12C A22U U90C U144A | ≤ -4.2
C5A U6G U13G U53A C116G G126U | -3.78
C5G U45G G86U C93G A97G | -3.16
C5A U9G C93G C103A C108G A113G A137G | ≤ -4.2
U4G U56A A60C C76G A91C C95U A142C | ≤ -4.2
C5G A39U G59U G68A A98G A115G A137G G143U | ≤ -4.2
C5G A20U C35U G50U C93U | -3.76
C5A C14G G94C G143A | -4.07
C5G U53G C57A G80C A91U U144C | ≤ -4.2
C5A U13G C27A G34A G42C C96A | ≤ -4.2
C5A C76A C85G G133C | -2.61
C5G C14G C96A | -2.31
C5G C54U U56A C99U | -1.99
C5G C93G | -2.51
C5G C93U | -2.31
C5G U82A C95U | -0.788
